Experimental data published in publication PMC13522589, “Weak SLP-76/PLC-γ1 interaction fine-tunes T cell receptor signal strength to optimize T cell responsiveness” (Nature Communications, 2026).

T1: PLC-γ1 (1-1219) (UniProt P19174 1-1219)
T1 construct: the text calls it full length PLC-γ1; this is the only PLC-γ1 that the methods describe; also called Phospholipase C-γ1; PLC-g1; source: Sf9, purified (HaloLink Resin, TEV cleavage, SEC)
T1 sequence (looked up): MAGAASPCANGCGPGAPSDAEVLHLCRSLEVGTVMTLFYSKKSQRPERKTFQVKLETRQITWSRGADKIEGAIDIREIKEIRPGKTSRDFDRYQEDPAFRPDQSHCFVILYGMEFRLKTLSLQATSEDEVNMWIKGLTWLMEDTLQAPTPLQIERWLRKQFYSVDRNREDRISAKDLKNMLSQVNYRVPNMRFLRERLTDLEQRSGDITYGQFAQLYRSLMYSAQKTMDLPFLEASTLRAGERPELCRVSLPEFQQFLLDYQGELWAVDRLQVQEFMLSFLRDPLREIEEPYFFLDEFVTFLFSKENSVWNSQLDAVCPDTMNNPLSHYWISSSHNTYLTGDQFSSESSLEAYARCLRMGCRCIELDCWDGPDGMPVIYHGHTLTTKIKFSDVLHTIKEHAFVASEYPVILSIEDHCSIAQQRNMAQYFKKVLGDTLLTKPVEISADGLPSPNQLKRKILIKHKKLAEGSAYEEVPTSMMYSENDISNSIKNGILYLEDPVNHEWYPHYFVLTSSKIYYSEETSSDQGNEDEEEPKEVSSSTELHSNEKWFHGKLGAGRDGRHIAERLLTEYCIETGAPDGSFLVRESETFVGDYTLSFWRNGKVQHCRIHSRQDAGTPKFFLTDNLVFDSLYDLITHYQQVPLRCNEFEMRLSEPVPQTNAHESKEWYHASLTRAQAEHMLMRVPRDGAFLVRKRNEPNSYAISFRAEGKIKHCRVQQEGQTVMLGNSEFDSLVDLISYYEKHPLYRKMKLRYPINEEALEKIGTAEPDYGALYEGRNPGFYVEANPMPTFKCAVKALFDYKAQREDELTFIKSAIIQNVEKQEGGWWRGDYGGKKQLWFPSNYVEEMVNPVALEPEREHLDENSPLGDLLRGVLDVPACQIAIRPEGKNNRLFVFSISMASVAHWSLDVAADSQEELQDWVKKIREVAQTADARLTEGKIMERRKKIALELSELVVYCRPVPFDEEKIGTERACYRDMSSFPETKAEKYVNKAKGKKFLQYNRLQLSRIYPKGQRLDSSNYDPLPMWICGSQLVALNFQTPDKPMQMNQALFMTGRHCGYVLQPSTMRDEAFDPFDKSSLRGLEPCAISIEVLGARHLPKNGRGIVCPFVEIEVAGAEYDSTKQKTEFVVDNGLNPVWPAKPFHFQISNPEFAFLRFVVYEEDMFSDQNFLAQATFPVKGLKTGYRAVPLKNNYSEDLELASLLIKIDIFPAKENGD

T2: phosphorylated LAT (48–233aa, pY132, pY171) (UniProt O43561-2 48-233, phosphotyrosine at 132 and 171 (in vitro phosphorylation, validated by mass spectrometry))
T2 sequence (looked up): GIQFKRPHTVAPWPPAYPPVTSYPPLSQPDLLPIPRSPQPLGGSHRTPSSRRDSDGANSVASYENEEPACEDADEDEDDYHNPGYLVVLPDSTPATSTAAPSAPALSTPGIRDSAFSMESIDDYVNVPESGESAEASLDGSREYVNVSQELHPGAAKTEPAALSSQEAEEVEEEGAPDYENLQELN

B1: SLP-76 PRR (aa 185-200) peptide, wild type (peptide, UniProt Q13094 185-200, looked up)
peptide: QPPVPPQRPMAALPPP
notes: SLP-76 proline-rich region, residues 185-200; The peptides are called 'a set of short peptides'; also called SLP-76^WT; SLP-76 PRR_(185-200)
B2: SLP-76 PRR peptide (aa 185–200), wild type (peptide, UniProt Q13094 185-200, looked up)
peptide: QPPVPPQRPMAALPPP
notes: also called SLP-76 185–200 (WT); SLP-76 PRR_(185–200) peptide
B3: Phospholipase C-γ1 (PLC-γ1), 1–1219 (enzyme, UniProt P19174 1-1219, looked up)
chain: T1 sequence (looked up)
B4: SLP-76^WT polypeptide (aa 103–258, Y113F, Y173F) (domain or fragment, UniProt Q13094 103-258, looked up)
chain: GGWSSFEEDDFESPNDDQDGEDDGDYESPNEEEEAPVEDDADYEPPPSNDEEALQNSILPAKPFPNSNSMFIDRPPSGKTPQQPPVPPQRPMAALPPPPAGRNHSPLPPPQTNHEEPSRSRNHKTAKLPAPSIDRSTKPPLDRSLAPFDREPFTLG
notes: source: E. coli Rosetta 2(DE3)pLysS, purified (Glutathione Resin, TEV cleavage, HisTrap, SEC); not shown: His6, N-terminal, cleaved; GST, N-terminal, cleaved

What was measured:
[1] = molecular target: LAT 161-180 (Homo sapiens) (UniProt O43561); assay: ITC; details: cited from earlier work
[2] = molecular target: LAT 125-178 (Homo sapiens) (UniProt O43561); assay: ITC; details: cited from earlier work
Chain of LAT 125-178 (Homo sapiens) (O43561 125-178): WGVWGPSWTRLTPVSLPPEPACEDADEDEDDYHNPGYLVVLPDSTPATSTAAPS

[3] = molecular target: SLP-76 157-420 (Homo sapiens) (UniProt Q13094); assay: ITC; details: cited from earlier work
Chain of SLP-76 157-420 (Homo sapiens) (Q13094 157-420): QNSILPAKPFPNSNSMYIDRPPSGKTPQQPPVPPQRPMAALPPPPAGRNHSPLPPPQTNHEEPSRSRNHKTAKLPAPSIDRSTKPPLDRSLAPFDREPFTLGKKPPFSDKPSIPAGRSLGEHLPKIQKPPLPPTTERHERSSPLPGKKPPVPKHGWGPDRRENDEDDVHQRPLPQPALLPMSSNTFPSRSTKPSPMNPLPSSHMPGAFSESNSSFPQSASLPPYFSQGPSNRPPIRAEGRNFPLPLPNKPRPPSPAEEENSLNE

[4] = molecular target: SLP-76 159-533 (Homo sapiens) (UniProt Q13094); assay: ITC; details: cited from earlier work
Chain of SLP-76 159-533 (Homo sapiens) (Q13094 159-533): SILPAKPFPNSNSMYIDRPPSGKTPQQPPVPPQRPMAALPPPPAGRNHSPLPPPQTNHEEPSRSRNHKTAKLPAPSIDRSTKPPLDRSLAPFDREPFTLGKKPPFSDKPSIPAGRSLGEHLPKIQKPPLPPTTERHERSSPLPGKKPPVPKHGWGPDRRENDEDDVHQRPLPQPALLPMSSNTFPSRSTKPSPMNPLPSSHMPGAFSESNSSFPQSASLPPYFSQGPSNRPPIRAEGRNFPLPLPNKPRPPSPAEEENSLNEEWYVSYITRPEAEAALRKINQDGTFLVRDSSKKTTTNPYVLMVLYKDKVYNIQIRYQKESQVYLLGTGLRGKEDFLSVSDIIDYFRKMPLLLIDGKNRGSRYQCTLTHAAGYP

SLP-76 (Homo sapiens) = SLP-76 (Homo sapiens) (UniProt Q13094); assay: ITC; details: cited from earlier work
Chain of SLP-76 (Homo sapiens) (Q13094 whole entry): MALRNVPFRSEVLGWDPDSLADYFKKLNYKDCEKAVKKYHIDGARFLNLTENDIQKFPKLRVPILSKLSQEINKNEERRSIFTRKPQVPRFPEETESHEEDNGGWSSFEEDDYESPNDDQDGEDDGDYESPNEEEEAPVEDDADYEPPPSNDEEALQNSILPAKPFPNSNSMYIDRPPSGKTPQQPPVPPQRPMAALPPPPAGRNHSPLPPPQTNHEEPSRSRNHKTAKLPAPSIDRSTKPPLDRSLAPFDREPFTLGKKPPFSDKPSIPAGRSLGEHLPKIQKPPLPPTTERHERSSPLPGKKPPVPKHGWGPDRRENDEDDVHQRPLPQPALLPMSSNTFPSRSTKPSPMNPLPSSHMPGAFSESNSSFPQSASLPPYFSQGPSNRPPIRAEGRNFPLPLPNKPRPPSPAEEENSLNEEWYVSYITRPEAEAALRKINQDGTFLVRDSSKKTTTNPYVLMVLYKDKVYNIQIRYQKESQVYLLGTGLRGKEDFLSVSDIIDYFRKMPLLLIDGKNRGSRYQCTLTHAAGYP

[5] = molecular target: LAT 122-140 (Homo sapiens) (UniProt O43561); assay: ITC; details: cited from earlier work
PLC-γ1 (1-1219) = molecular target: T1, PLC-γ1 (1-1219); assay: ITC; PEAQ-ITC, 5 °C, 20 mM Hepes pH 7.4, 100 mM NaCl, 0.1 mM DTT; 4 µM in the cell and 40 µM in the syringe, 19 injections of 2 µL; single binding site model with 1:1 stoichiometry; details: both partners purified
[6] = molecular target: B3; assay: ITC; VP-ITC or PEAQ-ITC; 20 mM Hepes pH 7.4, 100 mM NaCl, 0.1 mM DTT, 5 °C; 4 µM in the cell, 40 µM in the syringe; fit to a single binding site with 1:1 stoichiometry; details: both partners purified
[7] = molecular target: T2, phosphorylated LAT (48–233aa, pY132, …); assay: cell-based or functional assay
[8] = molecular target: B3; assay: cell-based or functional assay

Molecule: Gads 1-322 (from UniProt O75791)
Kd [1]: 164 nM
Kd [2]: 213 nM
Kd [3]: 19 nM
Kd [4]: 3.6 nM

Molecule: PLC-γ1 (from UniProt P19174)
Kd (SLP-76 (Homo sapiens)): 3340 nM

Molecule: PLC-γ1 1-1219 (from UniProt P19174)
Kd [2]: 84 nM

Molecule: PLC-γ1 550-846 (from UniProt P19174)
Kd [5]: 62 nM
Kd [3]: 3340 nM

Molecule: B1
Kd (PLC-γ1 (1-1219)): 2360 nM

Molecule: B2
Kd [6]: 3990 nM
dH [6]: -3.3 kcal/mol

Molecule: B3
PIP2 hydrolysis (IP3) by PLC-γ1 on liposomes containing phospho-LAT alone, compared with liposomes incubated with PLC-γ1 alone [7]: 2.1 fold

Molecule: B4
Kd [6]: 2320 nM
dH [6]: -3.8 kcal/mol
PLC-γ1 activity on PIP2-bearing liposomes (IP3): LAT/Gads/SLP-76^WT/PLC-γ1 tetramer against PLC-γ1 with phospho-LAT alone [8]: 1.7 fold
